The target of assay [1] is Abl2 SH2 domain (UniProt P42684). Nature of the assay: SH2 domain microarray probed with fluorescent peptide. As to conditions: reference: unphosphorylated Tyr1510 peptide; sites Y1510.
Assay [2] deals with Abl1 SH2 domain (UniProt P00519). The description is as above. Conditions: reference: unphosphorylated Tyr1510 peptide; sites Y1510.
For assay [3], the target named is Abl2 SH2 domain (UniProt P42684). Nature of the assay: GST pull-down from cell lysate. As to conditions: reference: vehicle (DMSO) treated cells; sites Y1510.
Assay [4] addresses Abl1 SH2 domain (UniProt P00519). Nature of the assay: GST pull-down from cell lysate. Conditions: reference: vehicle (DMSO) treated cells; sites Y1510.
For assay [5], the target named is Abl1 (UniProt P00519). Nature of the assay: co-immunoprecipitation with anti-Abl1. As to conditions: reference: vehicle (DMSO) treated cells; sites Y1510.
Assay [6] deals with Abl2 (UniProt P42684). Nature of the assay: co-immunoprecipitation with anti-Abl2. As to conditions: reference: vehicle (DMSO) treated cells; sites Y1510.
In assay [7] the target is GST-tagged SH2 domain of Abl2 (human) (UniProt P42684). Nature of the assay: peptide or protein array; GST-tagged SH2 domains of 124 proteins and GST alone spotted in duplicate on nitrocellulose-coated slides; biotinylated IQGAP1 peptides on streptavidin-Cy3 as probes, 16 h at 4 °C in PBS-Tween with 3% milk and 3% BSA; fluorescence read.
Assay [8] has as its target GST-tagged SH2 domain of Abl1 (human) (UniProt P00519). The assay is described as above.
Assay [9] has as its target endogenous Abl2 (H1993 cells) (human (endogenous in H1993)) (UniProt P42684). The experiment in a line: co-IP; endogenous proteins from H1993 cell lysates (Buffer A: 50 mM Tris-HCl pH 7.4, 150 mM NaCl, 1% Triton X-100); IP with anti-MET, anti-IQGAP1, anti-Abl1 or anti-Abl2, controls IgG or non-immune rabbit serum; for the Abl IPs cells also treated with 100 nM crizotinib or DMSO for 24 h.

For assay [10], the target named is endogenous Abl1 (H1993 cells) (human (endogenous in H1993)) (UniProt P00519). Described as above.
Assay [11] has as its target GST-tagged SH2 domain of Abl2 (human) (UniProt P42684). Nature of the assay: pull-down; GST-SH2 domains of Abl1 or Abl2, or GST, on glutathione-Sepharose, incubated with H1993 cell lysates for 3 h at 4 °C in Buffer A; cells treated with 100 nM crizotinib or DMSO for 24 h; Western blot for IQGAP1.
Assay [12] addresses GST-tagged SH2 domain of Abl1 (human) (UniProt P00519). The assay is described as above.

Consider “IQGAP1 1502-1518 (from UniProt P46940) pTyr1510 peptide”, for which the “other: array signal as percent of phosphopeptide signal” value in [1] and in [2] was “gained; reference less than 0.5” each time.
For the substance “IQGAP1 (from UniProt P46940) 100 nM crizotinib (MET inhibitor), 24 h”, the other: percent decrease vs vehicle in assay [3] was 92%; in [4], 82%; in assay [5] it was 84%; in assay [6], 75%.
As to “biotinylated IQGAP1 peptide (amino acids 1502 to 1518) with non-phosphorylated Tyr1510 (from UniProt P46940 1502-1518)”, the percent of the binding of the tyrosine-phosphorylated peptide (array fluorescence) in assay [7] and in assay [8] was below 0.5% in each case.
For the substance “endogenous IQGAP1 (H1993 cells) (from UniProt P46940 1-1657) (natural protein)”, the percent decrease of co-immunoprecipitated IQGAP1 after crizotinib against DMSO in assay [9] is 75%; in assay [10] it was 84%. Moreover, the values for the percent less IQGAP1 pulled down after crizotinib against DMSO in assay [11] and in assay [12] were 92% and 82%, respectively.

The record behind these values is publication PMC9913818.
